Measured values taken from IntAct's records for PubMed 17035250.

B1: Fibulin-5 (Homo sapiens), Q9UBX5 (parent)
chain: MPGIKRILTVTILALCLPSPGNAQAQCTNGFDLDRQSGQCLDIDECRTIPEACRGDMMCVNQNGGYLCIPRTNPVYRGPYSNPYSTPYSGPYPAAAPPLSAPNYPTISRPLICRFGYQMDESNQCVDVDECATDSHQCNPTQICINTEGGYTCSCTDGYWLLEGQCLDIDECRYGYCQQLCANVPGSYSCTCNPGFTLNEDGRSCQDVNECATENPCVQTCVNTYGSFICRCDPGYELEEDGVHCSDMDECSFSEFLCQHECVNQPGTYFCSCPPGYILLDDNRSCQDINECEHRNHTCNLQQTCYNLQGGFKCIDPIRCEEPYLRISDNRCMCPAENPGCRDQPFTILYRDMDVVSGRSVPADIFQMQATTRYPGAYYIFQIKSGNEGREFYMRQTGPISATLVMTRPIKGPREIQLDLEMITVNTVINFRGSSVIRLRIYVSQYPF

Variants of: B1
Conditions: with eln_bovin ELN
In the case of S227P, the “effect of a mutation on the interaction” value is reported as “decreasing interaction strength”. For C217R, the “effect of a mutation on the interaction” value was “decreasing interaction strength”.
